# According to patent US20200181261A1:
# Columns and labels:
# [1] = target: human CEACAM6, full-length, on cells (human) (UniProt P40199); test: FACS, 5 µg/ml, KS cells
# [2] = target: human CEACAM6, full-length, on cells (human) (UniProt P40199); test: FACS, 5 µg/ml, A549 cells
# [3] = target: human CEACAM6, full-length, on cells (human) (UniProt P40199); test: FACS, 5 µg/ml, HPAC cells
# [4] = target: human CEACAM6, full-length, on cells (human) (UniProt P40199); test: FACS, 5 µg/ml, HT29 cells
# [5] = target: human CEACAM6, full-length, on cells (human) (UniProt P40199); test: FACS, 5 µg/ml, HT55 cells
# [6] = target: human CEACAM6, full-length, on cells (human) (UniProt P40199); test: FACS, 5 µg/ml, LoVo cells
# [7] = target: human CEACAM6, full-length, on cells (human) (UniProt P40199); test: FACS, 5 µg/ml, MCF7 cells
# [8] = target: human CEACAM6, full-length, on cells (human) (UniProt P40199); test: FACS, 5 µg/ml, WiDr cells
# [9] = target: human CEACAM6, full-length, on cells (human) (UniProt P40199); test: FACS, 5 µg/ml, BxPc3 cells
# [10] = target: human CEACAM6, full-length, on cells (human) (UniProt P40199); test: FACS, 5 µg/ml, CL-34 cells
# [11] = target: human CEACAM6, full-length, on cells (human) (UniProt P40199); test: FACS, 5 µg/ml, DAN-G cells
# [12] = target: human CEACAM6, full-length, on cells (human) (UniProt P40199); test: FACS, 5 µg/ml, KM-12 cells
# [13] = target: human CEACAM6, full-length, on cells (human) (UniProt P40199); test: FACS, 5 µg/ml, SNU-1 cells
# [14] = target: human CEACAM6, full-length, on cells (human) (UniProt P40199); test: FACS, 5 µg/ml, T-47D cells
# [15] = target: human CEACAM6, full-length, on cells (human) (UniProt P40199); test: FACS, 5 µg/ml, AsPC-1 cells
# [16] = target: human CEACAM6, full-length, on cells (human) (UniProt P40199); test: FACS, 5 µg/ml, BT-474 cells
# [17] = target: human CEACAM6, full-length, on cells (human) (UniProt P40199); test: FACS, 5 µg/ml, Calu-3 cells
# [18] = target: human CEACAM6, full-length, on cells (human) (UniProt P40199); test: FACS, 5 µg/ml, HCC827 cells
# [19] = target: human CEACAM6, full-length, on cells (human) (UniProt P40199); test: FACS, 5 µg/ml, HPAFII cells
# [20] = target: human CEACAM6, full-length, on cells (human) (UniProt P40199); test: FACS, 5 µg/ml, SNU-C1 cells
# [21] = target: human CEACAM6, full-length, on cells (human) (UniProt P40199); test: FACS, 5 µg/ml, SW1116 cells
# [22] = target: human CEACAM6, full-length, on cells (human) (UniProt P40199); test: FACS, transfected HeLa cells
# [23] = target: human CEACAM6, full-length, on cells (human) (UniProt P40199); test: FACS, 5 µg/ml, HCC2998 cells
# [24] = target: human CEACAM6, full-length, on cells (human) (UniProt P40199); test: FACS, 5 µg/ml, ZR-75-1 cells
# [25] = target: human CEACAM6, full-length, on cells (human) (UniProt P40199); test: FACS, 5 µg/ml, HCC-2935 cells
# [26] = target: human CEACAM6, full-length, on cells (human) (UniProt P40199); test: FACS, 5 µg/ml, NCI-H441 cells
# [27] = target: human CEACAM6, full-length, on cells (human) (UniProt P40199); test: FACS, 5 µg/ml, NCI-H1437 cells
# [28] = target: human CEACAM6, full-length, on cells (human) (UniProt P40199); test: FACS, 5 µg/ml, NCI-H1688 cells
# [29] = target: human CEACAM6, full-length, on cells (human) (UniProt P40199); test: FACS, 5 µg/ml, NCI-H1993 cells
# [30] = target: human CEACAM6, full-length, on cells (human) (UniProt P40199); test: FACS, 5 µg/ml, NCI-H2228 cells
# [31] = target: human CEACAM6, full-length, on cells (human) (UniProt P40199); test: FACS, 5 µg/ml, RPMI-8226 cells
# [32] = target: human CEACAM6, full-length, on cells (human) (UniProt P40199); test: FACS, 5 µg/ml, MCF7/AdrVp cells
# [33] = target: human CEACAM6, full-length, on cells (human) (UniProt P40199); test: FACS, 5 µg/ml, MDA-MB-361 cells
# [34] = target: human CEACAM6, extracellular (mature form), R&D Systems 3934-CM (human) (UniProt P40199); test: SPR, antibody captured, antigen as analyte
# human CEACAM6, extracellular (mature form), R&D Systems 3934-CM (human), sequence (P40199 other isoform, or with tags, fused parts or gaps limits assumed): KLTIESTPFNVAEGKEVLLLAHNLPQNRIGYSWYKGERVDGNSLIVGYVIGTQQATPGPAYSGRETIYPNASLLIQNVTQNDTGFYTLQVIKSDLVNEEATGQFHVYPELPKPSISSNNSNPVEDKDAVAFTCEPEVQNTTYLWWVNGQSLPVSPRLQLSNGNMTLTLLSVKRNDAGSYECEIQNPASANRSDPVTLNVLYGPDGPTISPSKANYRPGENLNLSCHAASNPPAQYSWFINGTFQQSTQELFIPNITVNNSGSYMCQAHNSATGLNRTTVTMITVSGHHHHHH
# human CEACAM6, full-length, on cells (human), sequence (P40199 35-320 V239G): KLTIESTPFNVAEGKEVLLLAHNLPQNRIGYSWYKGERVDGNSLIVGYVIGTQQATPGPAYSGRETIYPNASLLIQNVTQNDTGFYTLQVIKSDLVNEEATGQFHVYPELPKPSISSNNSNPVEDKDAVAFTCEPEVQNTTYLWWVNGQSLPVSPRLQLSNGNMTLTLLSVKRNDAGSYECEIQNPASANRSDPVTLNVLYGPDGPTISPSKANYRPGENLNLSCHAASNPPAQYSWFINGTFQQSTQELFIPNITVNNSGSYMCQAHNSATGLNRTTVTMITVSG
substance,measurement,setting,value
9A6 (mouse IgG1) (antibody),FACS median fluorescence (medianfluorescence),[1],1000 to 10000
same,FACS median fluorescence (medianfluorescence),[2],1000 to 10000
same,FACS median fluorescence (medianfluorescence),[3],> 10000
same,FACS median fluorescence (medianfluorescence),[4],100 to 1000
same,FACS median fluorescence (medianfluorescence),[5],1000 to 10000
same,FACS median fluorescence (medianfluorescence),[6],100 to 1000
same,FACS median fluorescence (medianfluorescence),[7],10 to 100
same,FACS median fluorescence (medianfluorescence),[8],100 to 1000
same,FACS median fluorescence (medianfluorescence),[9],1000 to 10000
same,FACS median fluorescence (medianfluorescence),[10],10 to 100
same,FACS median fluorescence (medianfluorescence),[11],10 to 100
same,FACS median fluorescence (medianfluorescence),[12],100 to 1000
same,FACS median fluorescence (medianfluorescence),[13],1000 to 10000
same,FACS median fluorescence (medianfluorescence),[14],10 to 100
same,FACS median fluorescence (medianfluorescence),[15],1000 to 10000
same,FACS median fluorescence (medianfluorescence),[16],1000 to 10000
same,FACS median fluorescence (medianfluorescence),[17],10 to 100
same,FACS median fluorescence (medianfluorescence),[18],100 to 1000
same,FACS median fluorescence (medianfluorescence),[19],1000 to 10000
same,FACS median fluorescence (medianfluorescence),[20],100 to 1000
same,FACS median fluorescence (medianfluorescence),[21],1000 to 10000
same,FACS median fluorescence (medianfluorescence),[22],1000 to 10000
same,FACS median fluorescence (medianfluorescence),[23],100 to 1000
same,FACS median fluorescence (medianfluorescence),[24],100 to 1000
same,FACS median fluorescence (medianfluorescence),[25],> 10000
same,FACS median fluorescence (medianfluorescence),[26],100 to 1000
same,FACS median fluorescence (medianfluorescence),[27],1000 to 10000
same,FACS median fluorescence (medianfluorescence),[28],10 to 100
same,FACS median fluorescence (medianfluorescence),[29],1000 to 10000
same,FACS median fluorescence (medianfluorescence),[30],100 to 1000
same,FACS median fluorescence (medianfluorescence),[31],10 to 100
same,FACS median fluorescence (medianfluorescence),[32],10 to 100
same,FACS median fluorescence (medianfluorescence),[33],1000 to 10000
same,Kd,[34],22 nM
